The target of this experiment is TAMRA-APP12 (peptide S1) (TAMRA label (position not given); C-terminal amide). In words: fluorescence polarisation.

B1: naïve fusion of WT Fyn-SH3 and WT COMT (enzyme)
chain: not shown
In general, Kd refers to a measure of binding affinity in units of concentration. Take B1: the Kd is 330 nM.

The record behind these values is article PMC10065947 (Nature chemical biology, 2022).
